Assay results from IntAct's records for PubMed 19666841.

B1: Glycerol-3-phosphate dehydrogenase 1-like protein (Homo sapiens), Q8N335 (parent)
chain: MAAAPLKVCIVGSGNWGSAVAKIIGNNVKKLQKFASTVKMWVFEETVNGRKLTDIINNDHENVKYLPGHKLPENVVAMSNLSEAVQDADLLVFVIPHQFIHRICDEITGRVPKKALGITLIKGIDEGPEGLKLISDIIREKMGIDISVLMGANIANEVAAEKFCETTIGSKVMENGLLFKELLQTPNFRITVVDDADTVELCGALKNIVAVGAGFCDGLRCGDNTKAAVIRLGLMEMIAFARIFCKGQVSTATFLESCGVADLITTCYGGRNRRVAEAFARTGKTIEELEKEMLNGQKLQGPQTSAEVYRILKQKGLLDKFPLFTAVYQICYESRPVQEMLSCLQSHPEHT

Variants of: B1
Conditions: with scn5a_human SCN5A

Variant	effect of a mutation on the interaction
MAAAPLKVCIVGSGNWGSAVAKIIGNNVKKLQKFASTVKMWVFEETVNGRKLTDIINNDHENVKYLPGHKLPENVVAMSNLSEAVQDADLLVFVIPHQFIHRICDEITGRVPKKALGITLIKGIDEGPEGLKLISDIIREKMGIDISVLMGANIANEVAAEKFCETTIGSKVMENGLLFKELLQTPNFRITVVDDADTVELCGALKNIVAVGAGFCDGLRCGDNTKAAVIRLGLMEMIAFARIFCKGQVSTATFLESCGVADLITTCYGGRNRRVAEAFVRTGKTIEELEKEMLNGQKLQGPQTSAEVYRILKQKGLLDKFPLFTAVYQICYESRPVQEMLSCLQSHPEHT [A280V]	with no effect
MAAAPLKVCIVGSGNWGSAVAKIIGNNVKKLQKFASTVKMWVFEETVNGRKLTDIINNDHENVKYLPGHKLPENVVAMSNLSKAVQDADLLVFVIPHQFIHRICDEITGRVPKKALGITLIKGIDEGPEGLKLISDIIREKMGIDISVLMGANIANEVAAEKFCETTIGSKVMENGLLFKELLQTPNFRITVVDDADTVELCGALKNIVAVGAGFCDGLRCGDNTKAAVIRLGLMEMIAFARIFCKGQVSTATFLESCGVADLITTCYGGRNRRVAEAFARTGKTIEELEKEMLNGQKLQGPQTSAEVYRILKQKGLLDKFPLFTAVYQICYESRPVQEMLSCLQSHPEHT [E83K]	with no effect
